Laboratory results taken from a protein production outcome set (Wang et al. 2014).

Assay: label from the status in PepcDB records

Row | Sequence | protein production
1 | AIAAELGLNEHHQNEVINYMRFARSKRGLRLKTVDSCFQDLKESRLVEDTFTIDEVSEVLNGLQAVVHSEVESELINTAYTNVLLLRQLFAQAEKWYLKLQTDISELENQELLEQVAEFEKAEITSSNKKPILDVTKPKLAPLNEGGTAELLNEEILRLQEENEKLKSRLKTIEIQATNALDEKSKLEKALQDLQLDQGNQKDFIKAQDLSNLENTVAALKSEFQKTLNDKTENQKSLEENLATAKHDLLRVREQLHMAEKELEKKFQQTAAYRNMKEILTKKNDQIKDLRKRLAQYEPED | failed
2 | ADDFAMEMGLACVVCRQMTVASGNQLVECQECHNLYHQDCHKPQVTDKEVNXPSRGVVLCPGTRQMKRMAQKNQK | not failed
3 | MADNYVIWFENLRMTDVERVGGKNASLGEMISQLTEKGVRVPGGFATTAEAYRAFLAHNGLSERISAALAKLDVEDVAELARVGKEIRQWILDTPFPEQLDAEIEAAWNKMVADAGGADISVAVRSSATAEDLPDASFAGQQETFLNINGLDNVKEAMHHVFASLYNDRAISYRVHKGFEHDIVALSAGVQRMVRSDSGASGVMFTLDTESGYDQVVFVTSSYGLGENVVQGAVNPDEFYVFKPTLKAGKPAILRKTMGSKHIKMIFTDKAEAGKSVTNVDVPEEDRNRFSITDEEITELAHYALTIEKHYGRPMDIEWGRDGLDGKLYILQARPETVKSQEEGNRNLRRFAINGDKTVLCEGRAIGQKVGQGKVRLIKDASEMDSVEAGDVLVTDMTDPDWEPVMKRASAIVTNRGGRTCHAAIIARELGIPAVVGCGNATELLKNGQEVTVSCAEGDTGFIYAGLLDVQITDVALDNMPKAPVKVMMNVGNPELAFSFANLPSEGIGLARMEFIINRQIGIHPKALLEFDKQDDELKAEITRRIAGYASPVDFYVDKIAEGVATLAASVYPRKTIVRMSDFKSNEYANLVGGNVYEPHEENPMLGFRGAARYVADNFKDCFALECKALKRVRDEMGLTNVEIMIPFVRTLGEAEAVVKALKENGLERGKNGLRLIMMCELPSNAVLAEQFLQYFDGFSIGSNDMTQLTLGLDRDSGLVSESFDERNPAVKVMLHLAISACRKQNKYVGICGQGPSDHPDFAKWLVEEGIESVSLNPDTVIETWLYLANELNK | not failed
4 | MYIPNAFRESDTHNLQEHMDKTRLAILVTQGDDGLHATHLPLLLRSDEGPYGTLYGHMAKANPQWQQLNADAEAMVIFPGEDAYVSPSFYPSKAEHGKVVPTWNYLAVHAYGQAECFTDPDRLHQLLNDLTDRHESSRAQPWSINDAPADYIAKMLGAIVGFSIPVQRLQGKRKLSQNRSAEDMAGVRDGLGASHLANDQQIARLMSGWRPS | not failed
5 | MTAVFRNTVLVRFKHCDAAGIVFYPRYFEMLNDFIEDWFAQALDWPFDAMHGAGQAGVPTADLHCRFVAPSRLGETLTRELRVVKLGQSSFTVQVRFMGPDSGLRLEVTQRLVCVDTDKIAPRPLPDPVRQAMATYVDETLAATGSPGL | not failed
6 | RSTRQQAGREAEAFALQFLQQQGLRLIEQNWLCKRGELDLVMLDGDTVVFVEVRYRRHCGWGGAVESVDFRKQGKLVTAAQLFLQQVSCWADYPCRFDVIAIEGSPGSFD | failed
7 | KERILSSERLAKIMMSELGDKRQEHLIAIYLDTQNRVIKKQVIFIGSVRRSVAEPREILHYACKSMATSLIIVHNHPSGSTYPSENDLRFTEKIKRSCDDLGIVFLDHIIVGKKEYYSFREETDLV | not failed
8 | MYDMLKFEFSDRFLLFSYFVLIMFIGSLLLMLPISWEGDGKLAYIDALFTAVSAVSITGLTTVKMEGFSTFGFILIMLLIQLGGLGFISITTFYLLIPKKKMNLTDARIIKQYSLSNIEYNPIRILKSILFITFSIEMIGLILILICFKLRGVNISFLEALFTTISAFCNAGFSMHSESIYAWRDVPEAIVVVSILIICGGLGFMVYRDVNNTIKNKKKLSLHAKIVFSLSFFLIIIGAILFFFTEMHKLKAGYSMSTLIFNSIFYSISTRTAGFNYLDNSLISGRTQIISLPFMFIGGAPGSTAGGIKITTFFLIVLAVVKNQNGNGYIIGSYKVSIDSIRFALLFFARAIFILSFSFFMLLFFEGGSGNWKVIDLGYEVFSAFGTVGLSVGVTQDLSFWGKVIIIFTMFAGRIGLFSMAVFVSRKSRFEEFTRPRQDILVG | failed
9 | SILKIEKVLKRMREIKNELLQAQNPSELYLSSKTELQGLIGQLDEVSLEKNPCIREARRRAVIEVQTLITYIDLKE | not failed
10 | MNKEEQEDPQQEQISTVQENDPRNLQQLGMLLVSPGLDEDRLSEKMISKIKKSRDIEKNQKLLISRLSQKEEDHSGKPPTITTSPAEKTVPFKSLNHSLKRKRVPPALNFSDIQASSHLHGSKSAPPNITRFPQHKNSLRVRYMGRMAPTNQDYHPSVANSYMTATYPYPYTGLPPVPCYPYSSTPTQTHAYEGYYSPMYPGPLYNNGIIPADYHAKRKKLAGRSPHLEDLTSRKRTFVSKHHNGDPIISKTDEDIECSVTKNSLSEGASLNDDADDDNDKERIIIGEISLYDDVFKFEVRDDKNDYMKACETIWTEWHNLKK | failed
11 | MHSTPKRVLLAGATGLTGEHLLDRILSEPTLAKVIAPARKALAEHPRLDNPVGPLAELLPQLDGSIDTAFCCLGTTIKEAGSEEAFRAVDFDLPLAVGKRALEMGARHYLVVSALGADAKSSIFYNRVKGELEQALQEQGWPQLTIARPSLLFGPREEFRLAEILAAPIARILPGKYHGIEACDLARALWRLALEEGKGVRFVESDELRKLGK | not failed
12 | MNYSRIAEAIEYIRAHYKEQPGLDEVAEKVHLSPFHFQRIFTEWAGISPKKFLQYISLEHHHHHH | failed
13 | MASSAVSLQSISMTTLNNLSCNQQFHRSSLLGSSKSFQNLGISSNGSDFSYPSSFTAKKNLTASRALSQNGNIENPRPSKVQELSVYEINELDRHSPKILKNAFSLMFGLGDLVPFTNKLYTGDLKKRVGITAGLCVVIEHVPEKKGERFEATYSFYFGDYGHLSVQGPYLTYEDSFLAITGGAGIFEGAYGQVKLQQLVYPTKLFYTFYLKGLANDLPLELTGTPVPPSKDIEPAPEAKALEPSGVISNYTN | not failed
14 | MILVTGFEPFGSLEHNPSQALLDLLPSEVDGKPLRKAVLPVDAEALGEALEDLHREGPKAVLHLGLAEDRPVLTLERLAVNLLDFPRPDNRGRVLEDLPIVPGGPLALPARFPVKPVLARWREAGIPGRPSLSAGSYLCNQAFYLSLYRLPEEVPVGFLHLPPDETLALKRPRPYVPLEVQARAVRLALEHL | not failed
15 | TRMAPVIMVPGSSASQNRFDSLITELGKETPKKHSVLKLTVQTDGTIKYSGSIAANDNEPFIVIGFANNRDGKANIDKQAVWLNTAFKALVKTYHFNHFYALGHSNGGLIWTLFLERYLKESPKVHIDRLMTIASPYNMESTSTTAKTSMFKELYRYRTGLPESLTVYSIAGTENYTSDGTVPYNSVNYGKYIFQDQVKHFTEITVTGANTAHSDLPQNKQIVSLIRQYLLAETMPDK | not failed
16 | MSLDIEQQFLNDLDNQLWRAADKLRSNLDAANYKHVVLGLIFLKYVSDAFEERQQELTELFQKDDDDNIYYLPREDYDSDEAYQQAIAEELEIGDYYTEKNVFWVPKTARWNKLRDVITLPTGSVIWQDEQGEDVKLRSVSWLIDNAFDDIEKANPKLKGILNRISQYQLDADKLIGLINEFSLTSFNNPEYNGEKLNLKSKDILGHVYEYFLGQFALAEGKQGGQYYTPKSIVTLIVEMLEPYKGRVYDPAMGSGGFFVSSDKFIEKHANVKHYNASEQKKQISVYGQESNPTTWKLAAMNMVIRGIDFNFGKKNADSFLDDQHPDLRADFVMTNPPFNMKDWWHEKLADDPRWTINTNGEKRILTPPTGNANFAWMLHMLYHLAPTGSMALLLANGSMSSNTNNEGEIRKTLVEQDLVECMVALPGQLFTNTQIPACIWFLTKDKNAKNGKRDRRGQVLFIDARKLGYMKDRVLRDFKDEDIQKLADTFHNWQQEWSEENNQAGFCFSADLALIRKNDFVLTPGRYVGAEAEEDEGHHHHHH | not failed
17 | MPVSNEIWQLLSRLAEDIRPIGVNISAGEPNRLWTEAKWRALLERFPGERFVVLSGPDDLDAKRRLEEQCPNAVASPPTRNLYEASCIVAKLRLLVTPDTSMVHVASATGTPVAGLYREAPQDISRFGPYAIPYEIVISPTGEVSGIKPESVADAVRRLMARAIGREALEHHHHHH | not failed
18 | MGVPEPRPDWSRRLLGQGEAPDPRFTLANERTFLAWVRTALALLGGAIAIETFAGHVLETPLRLWLVAGLMLLSALLSAGACLRWLRVERALRRRRPLPLPALVPLLALGCLVAVLLAGLVLWPRWHG | failed
19 | MVGAIARWASLKIVMNPRQLTKTMNIQFLGNITTAILLAVVLQITLWPSAAQACTRILWNNNKLAVVVGRTMDWPESTEPELMVFPQGIKRNGGMLGDMLVVKDNPAQWTSKYGSVVTTVYGMGTVDGLNEKGLGMHMLYLTATDFGPRNPKKAGVQAGLWGQYLLDNAATVKEALALMNEIQPVMVALDDMKATVHLAIEDASGDSAILEYVEGKLVVHHGPEYRVMTNDPTYDQQLKFLETWDFTNATRQTPLPGNVDPKDRFVRASYYQMMLPEPKTEQEAIAGILAIARNTSVPFGAPNNIPGSLYNTEYRTAIDLTNRRYFFELTTSPNVIWVNLDQLNLAPGAPVLSLDPDNLDLSGNVTDKFTKVLKSPF | failed
20 | GQLDLLRSNTGLLYRIKDSQNAGKMKGSDNQEKLVYQIIEDAGNKGIWSRDVRYKSNLPLTEINKILKNLESKKLIKAVKSV | not failed
21 | MTAHPPRPELQIDIVSDVVCPWCIVGFRQLDQALAATGVLARLRWHPFELNPQMGPEGQNLREHIMEKYGSTPEQSAEARARLTAIGAELGFTFNFTDDSRIVNTFAAHQLLDWAEGQGRQHPLKQALFAAYFTDGRDVSDLSVLLDAVEAAGLDREAAQTALTSGAHQAPVREKQKFWAQHGISGVPSMVFGGKYLLTGAQGADTYAQVIQRCLAEA | not failed
22 | HRAKIRMEALPEDYERVPGTDMTPEQAYNVSNLDPALQKALDDLSPDFRVAVVLCDVVGMSYDEIADTLGVKMGTVRSRIHRGRSQLRAHLENQATSDEGAQLLLATGR | failed
23 | MQDNNARFPTIAKVLILRQFLWGAAFYGAFVLLTKFFLDDLNYSEADTIMMMGAFGAVGPVFSAVGGFLADKFIGAFRAVYIGYATYLAGFLLLGIGASQLNVPMSILAIALIGFARGLSATCPTVLFGNSYSETNREAFQQGLTVNYSINNLGSFSAKYLFPFLIAYLAYQGVFFVSAILMALNLLMFYKFRKELVSVGNDLDKTPLPLKTWVMFFAGSAAMLGLIFWIFSNLETGKYILYTLGFGAIGYFIYEITQATRAYQYKMVAVLITVCILIVFYFFYGQMFTSMNMYAINLMDDTLLGFIPIHPESNMAFNPLWCFVLGGPMIQLYAWLDRKGYSPTIPTKIAGAFMLSTIAFGLLGLSAGSIGENGKISADWILLVHFFQSGAELIVGALGAGFIFEMVPRYLAAFSIGLRAVAISLSGILAAVIATKIALPKDIVFTPEVVETVYTSYFYMLAQVAAFMAILTLGLSKVIQKLIARGEALEAEEKVDTTMRSNIG | failed
24 | LLALWVSAGELMAASKGAAGFTKATQEVSSYQTPVSNLMKAIAAVIVLVGAFNVYFKMQNGDQDVKKTIMLTIGGCIAFIALSEALPLFF | failed
